Laboratory results taken from paper PMC3324284.
Where “and” joins values, the source holds several entries; their conditions need not be identical. Identical values can stand only once. Like-named read-outs stand apart in the source and are kept apart here.

Columns and labels:
[1] = biological target: Mga4-His6 (Group A Streptococcus (Streptococcus pyogenes), M4 serotype strain GA40634); experiment: AUC
[2] = biological target: Mga4-His6 (Group A Streptococcus (Streptococcus pyogenes), M4 serotype strain GA40634); experiment: AUC; remark: listed apart in the source
[3] = biological target: Mga4-His6 (Group A Streptococcus (Streptococcus pyogenes), M4 serotype strain GA40634); experiment: SEC

**Q.** What does the source list for Mga4-His6 (natural protein)?
**A.** Kd [1]: 9.41 µM; Kd [2]: 6.13 µM; stoichiometry N [3]: 2 and 4 and 6
